# Test results: patent US20130130315A1 (ADVANCECOR, published 2013)
# Positions count from the first letter of the chain named. Values joined by “and” are separate entries in the source; they are usually repeats but may differ in a detail not shown here. Equal values may be shown once.
# T1: CD133 protein (UniProt O43490 20-865, limits assumed)
# T1 construct: whole, on cells; Presented on AC133/293 cells: paraformaldehyde-fixed in the cellular ELISA, unfixed in the phage FACS; also called CD133 antigen; AC133
# T1 sequence (looked up): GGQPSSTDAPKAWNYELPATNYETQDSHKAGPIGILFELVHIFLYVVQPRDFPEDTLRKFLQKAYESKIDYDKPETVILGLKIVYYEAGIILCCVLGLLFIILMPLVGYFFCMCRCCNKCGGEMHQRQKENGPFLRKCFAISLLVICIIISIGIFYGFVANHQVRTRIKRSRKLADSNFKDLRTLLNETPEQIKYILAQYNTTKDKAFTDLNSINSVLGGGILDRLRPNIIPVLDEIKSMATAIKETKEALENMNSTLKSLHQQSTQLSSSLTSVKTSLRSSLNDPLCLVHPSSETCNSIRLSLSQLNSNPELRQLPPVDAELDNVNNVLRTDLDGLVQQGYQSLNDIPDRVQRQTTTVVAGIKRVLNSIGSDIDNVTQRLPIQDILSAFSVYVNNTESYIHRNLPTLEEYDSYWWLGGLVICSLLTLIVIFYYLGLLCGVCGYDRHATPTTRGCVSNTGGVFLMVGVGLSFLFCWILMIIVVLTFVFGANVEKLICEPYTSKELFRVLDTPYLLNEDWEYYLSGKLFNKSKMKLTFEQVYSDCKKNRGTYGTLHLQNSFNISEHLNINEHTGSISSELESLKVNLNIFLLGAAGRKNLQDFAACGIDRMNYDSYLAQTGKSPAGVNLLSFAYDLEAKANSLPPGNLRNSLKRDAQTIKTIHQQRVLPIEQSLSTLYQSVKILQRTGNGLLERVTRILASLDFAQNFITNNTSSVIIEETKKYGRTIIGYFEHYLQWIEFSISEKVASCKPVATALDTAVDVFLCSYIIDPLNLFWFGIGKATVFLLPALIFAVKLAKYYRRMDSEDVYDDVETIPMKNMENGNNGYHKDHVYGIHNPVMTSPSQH
# T2: CD133 protein (UniProt O43490 20-865)
# T2 chain: T1 sequence (looked up)
# B1: W6B3H10 monoclonal antibody (antibody, V domains shown)
# VH: EVQLQQSGPDLMKPGASVKISCKASGYSFTNYYVHWVKQSLDKSLEWIGYVDPFNGDFNYNQKFKDKATLTVDKSSSTAYMHLSSLTSEDSAVYYCARGGLDWYDTSYWYFDVWGAGTAVTVSS
# VL: DILMTQSPKSMSMSLGERVTLSCKASENVDTYVSWYQQKPEQSPKVLIYGASNRYTGVPDRFTGSGSATDFSLTISNVQAEDLADYHCGQSYRYPLTFGAGTKLELK
# notes: Mouse monoclonal antibody from hybridoma clone W6B3H10 (subclone of W6B3C1), with gamma heavy chain and kappa light chain; also called W6B3H10 mAb; parental mAb
# B2: phage m1h harboring the mouse single chain sequence (scFv)
# scFv: DILMTQSPKSMSMSLGERVTLSCKASENVDTYVSWYQQKPEQSPKVLIYGASNRYTGVPDRFTGSGSATDFSLTISNVQAEDLADYHCGQSYRYPLTFGAGTKLELKGGGGSGGGGSGGGGSEVQLQQSGPDLMKPGASVKISCKASGYSFTNYYVHWVKQSLDKSLEWIGYVDPFNGDFNYNQKFKDKATLTVDKSSSTAYMHLSSLTSEDSAVYYCARGGLDWYDTSYWYFDVWGAGTAVTVSS
# notes: also called phage harboring the original mouse single chain antibody; not shown: fusion to the phage coat protein; display format not described
# B3: single chain antibody scFv-lh (scFv, not shown: a dimerising Fc or GST)
# scFv: B2 scFv
# notes: Orientation light-heavy; Made in CHO cells and in E. coli (pET22b); also called mouse single chain antibody; parental mouse single chain antibody
# B4: humanized fusion protein hscFv-lh-GPVI-Fc (Fc fusion)
# chain: DIQMTQSPKSLSASVGDRVTITCKASENVDTYVSWYQQKPGKAPKVLIYGASNRYTGVPSRFTGSGSATDFTLTISSLQPEDFATYYCGQSYRYPLTFAQGTKVEIKGGGGSGGGGSGGGGSEVQLVQSGAEVKKPGASVKVSCKASGYSFTNYYVHWVKQAPGQGLEWMGYVDPFNGDFNYNQKFKDRVTLTVDTSTSTAYMELSSLTSEDRAVYYCARGGLDWYDTSYWYFDVWGQGTLVTVSSQSGPLPKPSLQALPSSLVPLEKPVTLRCQGPPGVDLYRLEKLSSSRYQDQAVLFIPAMKRSLAGRYRCSYQNGSLWSLPSDQLELVATGVFAKPSLSAQPGPAVSSGGDVTLQCQTRYGFDQFALYKEGDPAPYKNPERWYRASFPIITVTAAHSGTYRCYSFSSRDPYLWSAPSDPLELVVTGTSVTPSRLPTEPPSSVAEFSEATAELTVSFTNKVFTTETSRSITTSPKESDSPAGPARQYYTKGNGGRVECPPCPAPPVAGPSVFLFPPKPKDTLMISRTPEVTCVVVDVSHEDPEVQFNWYVDGVEVHNAKTKPREEQFNSTFRVVSVLTVVHQDWLNGKEYKCKVSNKGLPAPIEKTISKTKGQPREPQVYTLPPSREEMTKNQVSLTCLVKGFYPSDIAVEWESNGQPENNYKTTPPMLDSDGSFFLYSKLTVDKSRWQQGNVFSCSVMHEALHNHYTQKSLSLSPGK
# B5: fusion protein scFv-lh-GPVI-FcIgG2 (Fc fusion)
# chain: DILMTQSPKSMSMSLGERVTLSCKASENVDTYVSWYQQKPEQSPKVLIYGASNRYTGVPDRFTGSGSATDFSLTISNVQAEDLADYHCGQSYRYPLTFGAGTKLELKGGGGSGGGGSGGGGSEVQLQQSGPDLMKPGASVKISCKASGYSFTNYYVHWVKQSLDKSLEWIGYVDPFNGDFNYNQKFKDKATLTVDKSSSTAYMHLSSLTSEDSAVYYCARGGLDWYDTSYWYFDVWGAGTAVTVSSQSGPLPKPSLQALPSSLVPLEKPVTLRCQGPPGVDLYRLEKLSSSRYQDQAVLFIPAMKRSLAGRYRCSYQNGSLWSLPSDQLELVATGVFAKPSLSAQPGPAVSSGGDVTLQCQTRYGFDQFALYKEGDPAPYKNPERWYRASFPIITVTAAHSGTYRCYSFSSRDPYLWSAPSDPLELVVTGTSVTPSRLPTEPPSSVAEFSEATAELTVSFTNKVFTTETSRSITTSPKESDSPAGPARQYYTKGNGGRVECPPCPAPPVAGPSVFLFPPKPKDTLMISRTPEVTCVVVDVSHEDPEVQFNWYVDGVEVHNAKTKPREEQFNSTFRVVSVLTVVHQDWLNGKEYKCKVSNKGLPAPIEKTISKTKGQPREPQVYTLPPSREEMTKNQVSLTCLVKGFYPSDIAVEWESNGQPENNYKTTPPMLDSDGSFFLYSKLTVDKSRWQQGNVFSCSVMHEALHNHYTQKSLSLSPGK
# notes: also called parental fusion protein; mouse fusion protein
# B6: phage clone 26 (humanized single chain antibody clone 26) (scFv)
# scFv: DIQMTQSPKSLSASVGDRVTITCKASENVDTYVSWYQQKPGKAPKVLIYGASNRYTGVPSRFTGSGSATDFTLTISSLQPEDFATYYCGQSYRYPLTFAQGTKVEIKGGGGSGGGGSGGGGSEVQLVQSGAEVKKPGASVKVSCKASGYSFTNYYVHWVKQAPGQGLEWMGYVDPFNGDFNYNQKFKDRVTLTVDTSTSTAYMELSSLTSEDRAVYYCARGGLDWYDTSYWYFDVWGQGTLVTVSS
# notes: not shown: fusion to the phage coat protein; display format not described
# B7: phage clone 29 (humanized single chain antibody derived from phage clone 29) (scFv)
# scFv: B6 scFv with K9R, A13V, A99G, S147C, F180L, R213T, D224H, W225C
# notes: as for B6
# B8: phage clone 27 (humanized single chain antibody derived from phage clone 27) (scFv)
# scFv: B6 scFv with A13M, T63S, Y87H, A99G, S199P, S210P, R213T
# notes: as for B6
# Key:
# [1] = target: T1, CD133 protein; experiment: cellular ELISA on fixed AC133/293 cells
# Method: (§1) 1×10⁵ cells in 0.2 ml of medium were added to each well and incubated o/n at 37° C., 5% CO₂ to allow cells to attach to the surface of the plate. The next day wells were washed once with 0.2 ml PBS and fixed with 0.1 ml 2% Paraformaldehyde (in PBS, pH 7.4) for 10-20 min at RT. Wells were washed with PBS-T (PBS+0.1% Tween-20) and blocked with either 1× RotiBlock or 3% milk in PBS-T for 1 hour at RT. After washing with PBS-T, serial dilutions of the respective antibody were added to the wells and incubated at RT for at least one hour while shaking. After washing with PBS-T, 0.1 ml of StrepMAb-Classic-HRP (1:10000 in PBS-T, lba BioTagnology, Göttingen, Germany) or of horseradish peroxidase linked anti-mouse IgG (1:10000 in PBS-T, Dianova, Hamburg, Germany) was added and incubated at RT for one hour with shaking. After washing with PBS-T, 0.1 ml of 1-Step Ultra TMB-ELISA substrate (Thermo Scientific, Braunschweig, Germany) was added and incubated until an adequate blue staining developed. To stop the reaction 0.1 ml 1 M H₂SO₄ was added to each well and absorbance at 450 nm and 595 nm as a reference was measured with an infinite F200 plate reader (TECAN, Männedorf, Switzerland). […] Signals were detected using an anti-mouse IgG-HRP antibody (1:10000 in PBS-T, Dianova, Hamburg, Germany). […]
# [2] = target: T1, CD133 protein; experiment: FACS of phage dilution series on AC133/293 cells
# [3] = target: T2, CD133 protein; experiment: FACS; panel A, Geo-Mean FI
# [4] = target: T2, CD133 protein; experiment: FACS; panel A, Median FI
# [5] = target: T1, CD133 protein; experiment: competitive cellular ELISA on fixed AC133/293 cells; competitor of 2 nM W6B3H10 mAb
# Method: as §1
# [6] = target: T1, CD133 protein; experiment: competition cellular ELISA on fixed AC133/293 cells; competitor of 2 nM W6B3H10 mAb
# Method: 1×10⁵ cells in 0.2 ml of medium were added to each well and incubated o/n at 37° C., 5% CO₂ to allow cells to attach to the surface of the plate. The next day wells were washed once with 0.2 ml PBS and fixed with 0.1 ml 2% Paraformaldehyde (in PBS, pH 7.4) for 10-20 min at RT. Wells were washed with PBS-T (PBS+0.1% Tween-20) and blocked with either 1× RotiBlock or 3% milk in PBS-T for 1 hour at RT. After washing with PBS-T, serial dilutions of the respective antibody were added to the wells and incubated at RT for at least one hour while shaking. After washing with PBS-T, 0.1 ml of StrepMAb-Classic-HRP (1:10000 in PBS-T, lba BioTagnology, Göttingen, Germany) or of horseradish peroxidase linked anti-mouse IgG (1:10000 in PBS-T, Dianova, Hamburg, Germany) was added and incubated at RT for one hour with shaking. After washing with PBS-T, 0.1 ml of 1-Step Ultra TMB-ELISA substrate (Thermo Scientific, Braunschweig, Germany) was added and incubated until an adequate blue staining developed. To stop the reaction 0.1 ml 1 M H₂SO₄ was added to each well and absorbance at 450 nm and 595 nm as a reference was measured with an infinite F200 plate reader (TECAN, Männedorf, Switzerland). […] Signals were detected using an anti-mouse IgG-HRP antibody (1:10000 in PBS-T, Dianova, Hamburg, Germany).
# [7] = target: T3, bovine collagen I (bovine, UniProt P02453 162-1217; P02465 80-1117, limits assumed); experiment: ELISA on immobilized bovine collagen I
# T3 construct: also called immobilized collagen I; soluble collagen I
# Method: Fc-protein was used as negative control.
# An Immulon 2 HB 96-well plate (NUNC, Rochester, N.Y.) was coated with 0.1 ml 1 μg/ml bovine collagen I in 15 mM Na₂CO3, 35 mM NaHCO3, pH 9.6 o/n at 4° C. Wells were washed with PBS-T, blocked with 0.1 ml 1× RotiBlock (Roth, Karlsruhe, Germany) in PBS-T for one hour and washed again before addition of 0.1 ml of threefold dilutions of fusion protein. After one hour incubation at RT with shaking, wells were washed with PBS-T. Wells were incubated with 0.1 ml anti-human IgG-HRP (Dianova, Hamburg, Germany) 1:10000 in PBS-T for one hour at RT with shaking. The plate was washed with PBS-T and incubated with 0.1 ml 1-Step Ultra TMB-ELISA (PIERCE, Rockford, Ill.). After blue staining had developed sufficiently, reactions were stopped by addition of 0.1 ml 1 M H₂SO₄. Absorbance was measured at 450 nm and 595 nm as a reference wavelength using an infinite F200 plate reader (TECAN, Männedorf, Switzerland). EC₅₀ values were calculated with Sigma Plot 11 using Four Parameter Logistic.
# [8] = target: T1, CD133 protein; experiment: FACS of phage dilution series on AC133/293 cells, mean fluorescence index
# T3 sequence (P02453 162-1217 limits assumed, chain 1 of 2): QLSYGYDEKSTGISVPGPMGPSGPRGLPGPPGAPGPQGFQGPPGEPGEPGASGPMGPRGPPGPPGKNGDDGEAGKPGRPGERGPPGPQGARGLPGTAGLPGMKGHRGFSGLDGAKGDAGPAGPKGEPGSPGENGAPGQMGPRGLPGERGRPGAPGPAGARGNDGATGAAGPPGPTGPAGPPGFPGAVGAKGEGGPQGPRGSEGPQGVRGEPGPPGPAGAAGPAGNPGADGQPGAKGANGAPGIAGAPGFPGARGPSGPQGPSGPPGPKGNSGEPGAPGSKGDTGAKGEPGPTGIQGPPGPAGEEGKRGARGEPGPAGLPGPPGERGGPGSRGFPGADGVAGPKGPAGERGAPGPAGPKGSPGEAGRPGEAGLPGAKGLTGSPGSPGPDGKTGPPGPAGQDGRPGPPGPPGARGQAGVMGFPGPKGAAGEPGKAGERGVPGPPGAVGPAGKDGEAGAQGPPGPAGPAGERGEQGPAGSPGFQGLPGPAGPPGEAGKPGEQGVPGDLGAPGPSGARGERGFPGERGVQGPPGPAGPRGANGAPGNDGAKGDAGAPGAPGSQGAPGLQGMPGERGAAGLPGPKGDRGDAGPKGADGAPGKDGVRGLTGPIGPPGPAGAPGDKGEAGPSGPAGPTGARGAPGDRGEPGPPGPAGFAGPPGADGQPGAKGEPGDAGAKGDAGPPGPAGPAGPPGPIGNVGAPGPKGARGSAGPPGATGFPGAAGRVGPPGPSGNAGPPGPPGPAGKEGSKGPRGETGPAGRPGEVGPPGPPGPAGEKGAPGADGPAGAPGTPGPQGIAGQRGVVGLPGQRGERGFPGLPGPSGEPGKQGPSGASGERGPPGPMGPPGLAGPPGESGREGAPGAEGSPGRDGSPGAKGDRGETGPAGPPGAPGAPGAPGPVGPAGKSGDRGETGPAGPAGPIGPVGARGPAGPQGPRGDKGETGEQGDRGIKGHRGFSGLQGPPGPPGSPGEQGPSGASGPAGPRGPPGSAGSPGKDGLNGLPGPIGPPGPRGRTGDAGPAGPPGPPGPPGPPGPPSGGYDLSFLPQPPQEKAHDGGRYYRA
# T3 sequence (P02465 80-1117 limits assumed, chain 2 of 2): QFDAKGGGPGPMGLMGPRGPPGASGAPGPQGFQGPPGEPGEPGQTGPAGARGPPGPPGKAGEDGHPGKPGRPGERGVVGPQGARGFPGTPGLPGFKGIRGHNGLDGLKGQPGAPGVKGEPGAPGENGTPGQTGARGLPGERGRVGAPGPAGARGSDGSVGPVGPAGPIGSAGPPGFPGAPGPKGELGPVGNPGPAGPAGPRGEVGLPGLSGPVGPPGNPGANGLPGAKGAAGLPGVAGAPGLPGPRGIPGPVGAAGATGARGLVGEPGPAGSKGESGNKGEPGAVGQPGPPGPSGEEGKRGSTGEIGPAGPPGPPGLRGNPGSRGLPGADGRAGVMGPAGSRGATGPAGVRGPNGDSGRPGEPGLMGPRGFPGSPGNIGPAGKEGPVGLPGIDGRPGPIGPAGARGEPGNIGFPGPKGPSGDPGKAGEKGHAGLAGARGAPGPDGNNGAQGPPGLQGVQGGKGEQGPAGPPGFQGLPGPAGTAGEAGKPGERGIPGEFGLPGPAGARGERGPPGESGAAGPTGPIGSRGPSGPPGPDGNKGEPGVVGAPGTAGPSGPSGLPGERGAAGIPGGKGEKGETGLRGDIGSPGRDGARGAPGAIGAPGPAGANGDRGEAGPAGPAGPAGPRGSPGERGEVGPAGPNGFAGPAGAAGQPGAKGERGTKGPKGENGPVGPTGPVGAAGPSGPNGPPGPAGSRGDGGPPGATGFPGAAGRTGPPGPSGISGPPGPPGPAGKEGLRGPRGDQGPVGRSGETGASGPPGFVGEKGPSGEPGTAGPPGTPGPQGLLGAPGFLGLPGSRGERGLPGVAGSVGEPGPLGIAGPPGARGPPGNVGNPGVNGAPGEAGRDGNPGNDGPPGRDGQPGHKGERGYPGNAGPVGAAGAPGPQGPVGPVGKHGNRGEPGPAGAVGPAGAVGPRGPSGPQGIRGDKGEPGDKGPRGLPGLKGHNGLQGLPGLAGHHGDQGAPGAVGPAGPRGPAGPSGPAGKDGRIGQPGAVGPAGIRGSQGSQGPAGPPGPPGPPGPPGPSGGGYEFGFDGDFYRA
binder,measurement,setting,value
B1,EC50,[1],0.12 nM
B2,Kd,[2],0.0256 nM and 0.0269 nM
same,Kd,[3],0.0174 nM
same,Kd,[4],0.0185 nM
B3,IC50,[5],3.1 nM
B4,IC50,[6],2.7 nM
same,EC50,[7],4.7 nM
B5,IC50,[6],3.1 nM
same,EC50,[7],6.3 nM
same,EC50,[1],0.21 nM
B6,Kd,[3],0.0182 nM
same,Kd,[4],0.0213 nM
same,Kd,[8],0.0322 nM
B7,Kd,[2],0.103 nM
B8,Kd,[2],0.0508 nM
